This passage reports maximum lysis, CD19-DE mediated ADCC against GRANTA-519 with MNC, in combination with the bsAb (4 h 51Cr release) results from patent US20240239902A1.

The target of this experiment is NKG2D on effector cells (NK cells, MNC) (human) (UniProt P26718). Briefly: cell-based or functional assay.
UniProt P26718, sequence (P26718 whole entry): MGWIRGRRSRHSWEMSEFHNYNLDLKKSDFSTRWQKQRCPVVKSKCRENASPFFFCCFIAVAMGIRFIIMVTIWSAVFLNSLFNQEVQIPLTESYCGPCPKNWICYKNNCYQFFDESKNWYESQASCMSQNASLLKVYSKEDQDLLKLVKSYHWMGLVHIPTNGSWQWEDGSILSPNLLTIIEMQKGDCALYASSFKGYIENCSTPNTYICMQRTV

B1: bispecific antibody [CD20×NKG2D #3] (bispecific antibody, part only; not given: constant regions, Fab-scFv linker, tags, not shown: another chain or arm of the molecule; a dimerising Fc or GST; small tags and cut ends)
VH: QVQLQQPGAELVKPGASVKMSCKASGYTFTSYNMHWVKQTPGRGLEWIGAIYPGNGDTSYNQKFKGKATLTADKSSSTAYMQLSSLTSEDSAVYYCARSTYYGGDWYFNVWGAGTTVTVSS
VL: QIVLSQSPAILSASPGEKVTMTCRASSSVSYIHWFQQKPGSSPKPWIYATSNLASGVPVRFSGSGSGTSYSLTISRVEAEDAATYYCQQWTSNPPTFGGGTKLEIK
scFv: QVQLVQSGAEVKKPGASVKVSCKASGYTFTSYGISWVRQAPGQGLEWMGGIIPIFGTANYAQKFQGRVTITADESTSTAYMELSSLRSEDTAVYYCAKDLYDYVWGSYRPNWYFDLWGRGTLVTVSSGSASAPKLEEGEFSEARVSSELTQDPAVSVALGQTVRITCQGDSLRGYYASWYQQKPGQAPVLVTYGNNKRPSGIPDRFSGSSSGNTASLTITGTQAEDEADYYCNSRDNNGNFVIFGGGTKLTVL
Consider B1, for which the maximum lysis, CD19-DE mediated ADCC against GRANTA-519 with MNC, in combination with the bsAb (4 h 51Cr release) is 24.5%.
